Experimental data: paper PMC3718021 (2013)

Key:
Experiment in all cases: high-speed cosedimentation
γ-actin = γ-actin (Mus musculus, UniProt P63260)
[1] = target: platelet actin (85% β-actin, 15% γ-actin) (Homo sapiens, UniProt P60709)
α-skeletal F-actin = α-skeletal F-actin (Oryctolagus cuniculus, UniProt P68135)

Kd (γ-actin) [µM] | Kd [1] [µM] | Kd (α-skeletal F-actin) [µM] | Binder
6.17 | 4.15 | – | fascin-2 (protein) MPTNGLHQVLKIQFGLVNDADRYLTAESFGFKVNASAASLKRKQIWVLEPDPGQGTAVLFRSSHLGRYLSAEEDGRVACEMDQPGRDCRFLVLPQPDGRWVLQSEPHGRFFGGIEDRLSCFATAISPAELWTVHLAIHPQAHLLSVSRRRYVHLCLQEDEMAADGDMPWGVDALVTLIFQSRRYCLKSYDSRYLRSDGRLVWEPEAHACYTLEFKAGKLAFKDCDGRYLAPVGPAGTLKAGRNTRPSKDELFDLEQSHPQVVLVAANRRYISVRQGINVSANQDEELGHETFLMQIDQETKKCTFYSSTGGYWTLVTHGGIQATATQVSANTMFEIEWHGRRVALKASNGRFVCMKKNGQLAAISDFVGEDELFTLKLINRPLLVLRGLDGFVCHRRGSNQLDTNRSTYDVFHLSFRDGAYQIRGRGGGFWYTGSHGSVCSDGDLAEDFLFEFRERGRLAIRALSGKYLRGGASGLLRADADLPVGEALWEY
– | – | 5.97 | fascin-2 p.R109H (protein) MPTNGLHQVLKIQFGLVNDADRYLTAESFGFKVNASAASLKRKQIWVLEPDPGQGTAVLFRSSHLGRYLSAEEDGRVACEMDQPGRDCRFLVLPQPDGRWVLQSEPHGHFFGGIEDRLSCFATAISPAELWTVHLAIHPQAHLLSVSRRRYVHLCLQEDEMAADGDMPWGVDALVTLIFQSRRYCLKSYDSRYLRSDGRLVWEPEAHACYTLEFKAGKLAFKDCDGRYLAPVGPAGTLKAGRNTRPSKDELFDLEQSHPQVVLVAANRRYISVRQGINVSANQDEELGHETFLMQIDQETKKCTFYSSTGGYWTLVTHGGIQATATQVSANTMFEIEWHGRRVALKASNGRFVCMKKNGQLAAISDFVGEDELFTLKLINRPLLVLRGLDGFVCHRRGSNQLDTNRSTYDVFHLSFRDGAYQIRGRGGGFWYTGSHGSVCSDGDLAEDFLFEFRERGRLAIRALSGKYLRGGASGLLRADADLPVGEALWEY
– | 3.91 | – | fascin-2 S39A (protein) MPTNGLHQVLKIQFGLVNDADRYLTAESFGFKVNASAAALKRKQIWVLEPDPGQGTAVLFRSSHLGRYLSAEEDGRVACEMDQPGRDCRFLVLPQPDGRWVLQSEPHGRFFGGIEDRLSCFATAISPAELWTVHLAIHPQAHLLSVSRRRYVHLCLQEDEMAADGDMPWGVDALVTLIFQSRRYCLKSYDSRYLRSDGRLVWEPEAHACYTLEFKAGKLAFKDCDGRYLAPVGPAGTLKAGRNTRPSKDELFDLEQSHPQVVLVAANRRYISVRQGINVSANQDEELGHETFLMQIDQETKKCTFYSSTGGYWTLVTHGGIQATATQVSANTMFEIEWHGRRVALKASNGRFVCMKKNGQLAAISDFVGEDELFTLKLINRPLLVLRGLDGFVCHRRGSNQLDTNRSTYDVFHLSFRDGAYQIRGRGGGFWYTGSHGSVCSDGDLAEDFLFEFRERGRLAIRALSGKYLRGGASGLLRADADLPVGEALWEY
– | – | 4.95 | fascin-2 (protein, N-terminal flag tag, phalloidin-stabilized F-actin) MPTNGLHQVLKIQFGLVNDADRYLTAESFGFKVNASAASLKRKQIWVLEPDPGQGTAVLFRSSHLGRYLSAEEDGRVACEMDQPGRDCRFLVLPQPDGRWVLQSEPHGRFFGGIEDRLSCFATAISPAELWTVHLAIHPQAHLLSVSRRRYVHLCLQEDEMAADGDMPWGVDALVTLIFQSRRYCLKSYDSRYLRSDGRLVWEPEAHACYTLEFKAGKLAFKDCDGRYLAPVGPAGTLKAGRNTRPSKDELFDLEQSHPQVVLVAANRRYISVRQGINVSANQDEELGHETFLMQIDQETKKCTFYSSTGGYWTLVTHGGIQATATQVSANTMFEIEWHGRRVALKASNGRFVCMKKNGQLAAISDFVGEDELFTLKLINRPLLVLRGLDGFVCHRRGSNQLDTNRSTYDVFHLSFRDGAYQIRGRGGGFWYTGSHGSVCSDGDLAEDFLFEFRERGRLAIRALSGKYLRGGASGLLRADADLPVGEALWEY
